Drawing on patent US20230056856, “COMPOSITIONS AND METHODS FOR TUNABLE REGULATION OF TRANSCRIPTION” (OBSIDIAN THERAPEUTICS, INC., published 2023), this text covers activity for two molecules.

For data set [1], the target named is ZFHD1-ecDHFR(R12Y,Y100I)-p65 (ZFHD-008) (Artificial). Kind of data set: cell_activity; U2OS, GFP MFI 10 uM TMP vs DMSO, 72 h. The protocol: (§1) Ligand treatment: Each cell line was plated in 12-well plates at a density of 80,000 cells/well and allowed to adhere overnight. Media was removed and replacement media either with 10 μM Trimethoprim (TMP) or 0.1% DMSO was added. Cells were incubated for 24 hour, 48 hour, and 72 hour timepoints. At each timepoint, cells were removed from the plates with 0.25% trypsin for collection. A 0 hour timepoint was also collected before addition of TMP or DMSO.

The target of data set [2] is ZFHD1-p65-linker-ecDHFR(R12Y,Y100I) (ZFHD-009) (Artificial). The description is as above. The protocol: as §1
The target in data set [3] is ZFHD1-p65-ecDHFR(R12Y,Y100I) (ZFHD-005) (Artificial). The description is as above. The protocol: as §1
The target of data set [4] is ZFHD1-p65-CA2(L156H) (ZFHD-019) (Artificial). Kind of data set: cell_activity; ARPE-19, GFP MFI 10 uM ACZ vs DMSO, 48 h; in U2OS ACZ EC50 of payload 1.1 uM (Example 9). The protocol:
Cells were cultured in DMEM-F12 media supplemented with 10% FBS.
Ligand treatment: Each cell line was plated at a density of 15,000 cells/well in 6-8 wells of a 24-well plate. Cells were allowed to adhere overnight. […] After 48 hours incubation, cells were removed from the plate with 0.25% trypsin and collected. […] For flow cytometry, samples were washed once with cell staining buffer (Biolegend, San Diego, Calif.), resuspended in cell staining buffer with 1% QSol™ buffer (Intellicyt Corporation, Albuquerque, N. Mex.), and analyzed by flow cytometry.

Data set [5] has as its target ZFHD1-p65 (ZFHD-004, constitutive) (Artificial (Homo sapiens/Mus …)). Kind of data set: cell_activity; U2OS, constitutive TF; TMP/DMSO ratio only, not regulated by ligand.
Data set [6] concerns the target ZFHD1-p65-CA2(L156H) (ZFHD-048) (Artificial). Kind of data set: cell_activity; Jurkat, GFP MFI 10 uM ACZ vs DMSO, 48 h.

B1: 8xZFHD1 binding sites of payload ZFHD-007 (dsDNA)
DNA 1: TAATGATGGGCGCACGAGTAATGATGGGCGGACGACTAATGATGGGCGCACGAGTAATGATGGGCGTCTAGCTAATGATGGGCGCTAGAGTAATGATGGGCGGTAGACTAATGATGGGCGCTCCAGTAATGATGGGCG
DNA 2: CGCCCATCATTACTGGAGCGCCCATCATTAGTCTACCGCCCATCATTACTCTAGCGCCCATCATTAGCTAGACGCCCATCATTACTCGTGCGCCCATCATTAGTCGTCCGCCCATCATTACTCGTGCGCCCATCATTA
Turning to B1, the activity in data set [1] is 3.57 fold; in data set [2], 5.71 fold; in data set [3] it was 11.4 fold; in data set [4], approximately 1.9 fold; in data set [5], 0.894 fold.

B2: 8xZFHD1 BS payload ZFHD-022 (dsDNA)
DNA 1: B1 DNA 1
DNA 2: B1 DNA 2
In the case of B2, the activity in data set [6] is approximately 2.1 fold.
